The supplement of paper PMC10724198
± gives the standard deviation of the averaged measurements.

Test system: Saccharomyces cerevisiae
Assay: protein stability index of tFT-peptide fusion (C-terminal peptide) (PSI (0-1 scale)); higher = more stable (slower turnover)
Conditions: genetic background: wild type; temperature: 30 C
Experimental: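 Multiplexed protein stability (MPS) profiling in S. cerevisiae. Random 12-aa peptides (tFT-X12 library) are fused to the C-terminus of a sfGFP-mCherry tandem fluorescent timer, after mCherry and a GGGS linker. Cells are FACS-sorted into 8 mCherry/sfGFP bins and deep-sequenced. The protein stability index (PSI) is the read-weighted bin average, scaled from 0 (unstable) to 1 (stable). Only peptides with >10 reads are reported; cells were grown at 30 °C in SC-His with glucose.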
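Further: PSI is a weighted mean of sequencing reads over stability bins, variants kept only with over 10 reads, mCherry proximal and sfGFP distal, peptide attached via GGGS linker.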

Sequence	protein stability index
GDGGGCWSGVGW	0.643 ± 0.1
GDGGGMVEGLSR	0.66946 ± 0.00014
GDIQRSNNFTIG	0.779 ± 0.05
GDMKCVTRDSFI	0.638 ± 0.054
GDMSIWRSNNIT	0.6723 ± 0.00088
GDRGIKAYGVRG	0.65 ± 0.015
GDRTIALFFFTI	0.671 ± 0.024
GDSESRTWCQNL	0.548 ± 0.02
GDSKTKDEMYKI	0.6867 ± 0.0045
GDTVLLCDLASC	0.687 ± 0.0092
GDVLLLVGAGER	0.706 ± 0.1
GDYGRLINLVTR	0.6815 ± 0.0059
GEAKAARNKRMI	0.708 ± 0.024
GEAREEEKKGRW	0.631 ± 0.027
GEERRGRCGEKQ	0.597 ± 0.087
GEGGEGWGCFSF	0.677 ± 0.021
GEGKAGGESEEP	0.62 ± 0.068
GEGRAAGEIGGV	0.707 ± 0.033
GEGRRYVVVTEG	0.693 ± 0.035
GEGVRGGEWGLD	0.717 ± 0.053
GEKKKAILGKRK	0.62 ± 0.011
GEQLNWSREPWY	0.735 ± 0.038
GERKRQQRKREE	0.707 ± 0.064
GERLGEWGGGVG	0.669 ± 0.0093
GESGGGAVGGGW	0.64 ± 0.039
GEVRHCRVTVIA	0.539 ± 0.036

Sequence	protein stability index
GFALVVGNLISF	0.636 ± 0.021
GFATCSFPVCRV	0.661 ± 0.027
GFCSGGVFVEWV	0.754 ± 0.065
GFGKRGKDQDTY	0.595 ± 0.033
GFGSSSFLCFSR	0.669 ± 0.042
GFHCRLRVSTFG	0.585 ± 0.019
GFLCFRWACVRL	0.487 ± 0.028
GFLWLLGGVLGV	0.658 ± 0.082
GFRVRCSICGSA	0.681 ± 0.073
GFTVVGCSYVTT	0.5572 ± 0.0023
GFYPGRSKGCLG	0.73 ± 0.05
GGAGLGVVLGWW	0.6833 ± 0.0062
GGAGSFVEKEID	0.69 ± 0.044
GGALDQADGGRS	0.7269 ± 0.0014
GGALFVCSSVGR	0.681 ± 0.033
GGALLGGGAMGL	0.643 ± 0.037
GGARGDEGGGSA	0.761 ± 0.055
GGAWGHCSHEWS	0.6882 ± 0.0052
GGCAAGVGRLAV	0.624 ± 0.075
GGCCGRVWGSVE	0.71 ± 0.054
GGCEGIRAVGWV	0.716 ± 0.04
GGCEWWSWGRGG	0.729 ± 0.041
GGCGGGGGVVVR	0.7029 ± 0.0021
GGCNLLGRGPDF	0.694 ± 0.024
GGCQCFSFPWPP	0.712 ± 0.087
GGEGRGAFWGGE	0.68361 ± 0.0002

Sequence	protein stability index
GGEYVGGRGCGL	0.682 ± 0.1
GGFASGLCGGVI	0.728 ± 0.087
GGFGVARVLYGL	0.712 ± 0.035
GGGAGGEAVRVW	0.655 ± 0.025
GGGARFGLGGRM	0.675 ± 0.027
GGGGAGFRGGIE	0.68 ± 0.0019
GGGGAGGRRGTQ	0.654 ± 0.0077
GGGGCRVRGLGA	0.684 ± 0.041
GGGGEVRAWGLR	0.71 ± 0.032
GGGGGGGGCGVI	0.77 ± 0.08
GGGGGGGGRARE	0.707 ± 0.09
GGGGGGGLGGAF	0.717 ± 0.026
GGGGGGGVGMMW	0.738 ± 0.02
GGGGGGRLEGGA	0.66 ± 0.07
GGGGGGVRVARW	0.687 ± 0.07
GGGGGGVSLGGR	0.696 ± 0.072
GGGGGSRGVCLG	0.656 ± 0.063
GGGGGVCGACVV	0.685 ± 0.016
GGGGRGTAVVGV	0.66 ± 0.048
GGGGRGVGAGGG	0.652 ± 0.061
GGGGSAGAGGGG	0.6221 ± 0.0061
GGGIGWRAGEFG	0.673 ± 0.0016
GGGRGGGEWVGG	0.651 ± 0.043
GGGRGRWGPEGE	0.6902 ± 0.0043
GGGRGTGVEFGA	0.7 ± 0.03
GGGRGVGCMGCR	0.688 ± 0.015

Sequence	protein stability index
GGGRPDRPQRAI	0.741 ± 0.026
GGGRRRVAGREL	0.701 ± 0.048
GGGRWGAGVKGV	0.645 ± 0.028
GGGRYCADDGGR	0.763 ± 0.051
GGGSLWWDVGYG	0.6649 ± 0.0016
GGGTLGQWCCDV	0.6835 ± 0.0029
GGGVGCRSRGAG	0.595 ± 0.025
GGGVLLRGGSGP	0.716 ± 0.053
GGGVWYFSWSFC	0.595 ± 0.045
GGGWGRAYSWWV	0.705 ± 0.012
GGGWSGRGVGDR	0.727 ± 0.078
GGGYHLGSCDKL	0.624 ± 0.025
GGHAAMGRRGRE	0.73 ± 0.14
GGIRGITSRQPP	0.576 ± 0.019
GGIVGVSWLVRS	0.657 ± 0.03
GGLEVDWVGCGV	0.701 ± 0.012
GGLGSHWDCDGL	0.734 ± 0.093
GGLGVYQWVDSV	0.663 ± 0.02
GGLIWRHGVGRG	0.692 ± 0.018
GGLRPLFLCCLF	0.569 ± 0.05
GGLSGSRCTLFW	0.7342 ± 0.0069
GGLVWEESAGVR	0.7091 ± 0.0016
GGNMPNNCWSRI	0.698 ± 0.022
GGNSRASAVKGA	0.702 ± 0.1
GGNTQTNYHGCL	0.73227 ± 0.00035
GGPAWGRGGMYW	0.678 ± 0.034

Sequence	protein stability index
GGPGWGVSGWEG	0.705 ± 0.015
GGRAWRWVARVG	0.673 ± 0.045
GGRCAERSDWCG	0.647 ± 0.016
GGRCGSVGRGGA	0.735 ± 0.065
GGRFGLGGRLVG	0.658 ± 0.05
GGRFPGGGGRRR	0.583 ± 0.06
GGRGSAWRWRRG	0.674 ± 0.014
GGRLLLLVGFRV	0.583 ± 0.0066
GGRPVGRRRPGA	0.671 ± 0.031
GGRQTAVSGLLL	0.685 ± 0.017
GGRSGVSGVVAG	0.7021 ± 0.0049
GGRVKPRGVGVG	0.648 ± 0.016
GGRVPRCRTVLL	0.681 ± 0.033
GGSGGGRRGVGR	0.656 ± 0.0095
GGSGLRCCREMG	0.681 ± 0.022
GGSLPAHPRNPL	0.701 ± 0.027
GGSRGGTFLWGP	0.672 ± 0.036
GGSTAKGRPMDT	0.645 ± 0.0067
GGTEGSGWSGGG	0.638 ± 0.029
GGTGGRLGVGHV	0.704 ± 0.073
GGTGRGGEMGGR	0.7428 ± 0.0069
GGTGRVGEMGGR	0.755 ± 0.034
GGTWVLGWGLGV	0.714 ± 0.4
GGVCVGSFLFDR	0.702 ± 0.029
GGVEVAQGVVWC	0.715 ± 0.066
GGVGGGRAGVWG	0.681 ± 0.021

Sequence	protein stability index
GGVGGPGLDGWK	0.676 ± 0.059
GGVLAGEWGAGL	0.624 ± 0.051
GGVSGQLLRSHG	0.682 ± 0.0027
GGVSVVTRVAPR	0.658 ± 0.016
GGVVLDEEVGCG	0.614 ± 0.06
GGWGCGGWGFVG	0.58568 ± 0.00052
GGWGGGGGAWSG	0.71 ± 0.041
GGWGWRSGTEGE	0.665 ± 0.012
GGWHVVGGAGVG	0.564 ± 0.01
GGWWGGLGCFMV	0.699 ± 0.034
GGYGGGWRGGGR	0.626 ± 0.077
GGYRFCSKYKSE	0.673 ± 0.023
GGYYIFGLCDLL	0.625 ± 0.075
GHAYKYVDSFRR	0.654 ± 0.044
GHGGHIVRTSSY	0.7 ± 0.023
GHLGLFEEETGG	0.711 ± 0.053
GHRLSMCLGFGK	0.63 ± 0.01
GHVCTRCVWPRV	0.606 ± 0.055
GIDARGLYGGAL	0.66 ± 0.032
GIGCMVYKGGFQ	0.6977 ± 0.0011
GIGYVTPLSRVL	0.72 ± 0.038
GIKKNQVSIRYI	0.606 ± 0.03
GIKMTWTNGQHF	0.6909 ± 0.0054
GILFFLQLCACS	0.7014 ± 0.0064
GILNIRKALDGK	0.6477 ± 0.0026
